19 molecules from patent US20150086574A1 (CELLERANT THERAPEUTICS, published 2015) can be followed below.

First the molecules themselves.
T1: T cell Immunoglobulin- and Mucin domain-containing molecule 3 (TIM3), human, on cells (human, UniProt Q8TDQ0 22-301)
T1 construct: TIM3 as carried by human cell lines (Pfeiffer, Daudi, CMK) and by primary cells of patients; also called HAVCR2; KIM-3
T1 sequence: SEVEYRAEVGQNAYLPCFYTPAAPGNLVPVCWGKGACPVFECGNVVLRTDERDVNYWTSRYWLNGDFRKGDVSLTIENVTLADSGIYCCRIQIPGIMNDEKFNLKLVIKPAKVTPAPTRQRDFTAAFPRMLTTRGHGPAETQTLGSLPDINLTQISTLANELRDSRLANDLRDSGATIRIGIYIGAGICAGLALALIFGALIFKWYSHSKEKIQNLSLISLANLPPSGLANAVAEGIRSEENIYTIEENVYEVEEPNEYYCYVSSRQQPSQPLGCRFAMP

B1: 27.2H4 (antibody, IgG1, V domains shown)
VH: EVQLQQSGAELVRPGALVKLSCKASGFNIKHYYIHWVNQRPEQGLEWIGWIDPETGNTIYDPKFQGKASITADTSSSTAYLQLNSLTSEDTAVYCCARGWSYAMDYWGQGTSVIVSS
VL: DIVMTQSHKFMSTSVGDRVSITCKASQDVNTAVAWYQQKPGHSPKLLIYSASYHYTGVPDRFTGSGSGTDFTFTISSVQAEDLAVYYCQQHYSTPWTFGGGTKLEIK
notes: also called 27.2H4 (D2.1)
B2: 7.10F6 (antibody, IgG1, V domains shown)
VH: EVQLVESGGGLVQPGGSLKLSCAASGFIFSGYGMSWVRQTPDKRLELVAIINSNGGSVDYPDSVKGRVTISRDNAKNTLYLQMSSLKSEDTAMYYCARIYYRCMDYWGQGTSVTVSS
VL: NIMMTQSPSSLAVSAGEKVTMSCKSSQSLLYSSNQKNYLAWYQQKPGQSPKLLIYWASARESGVPDRFTGGGSGTDFTLTISSVQAEDLAVYYCHQYLSSYTFGGGTKLEIKR
notes: also called 7.10F6.1; 7.10F6.1-pure
B3: 9.1G12 (antibody, V domains shown)
VH: EVMLVESGGGLVKPGGSLKLSCAASGFTFSSYAMSWVRQTPERKLEWVATISSGGTYTYYPDSVKGRFTISRDNAKNRLYLQMSGLRSEGTAMYYCVRPDYTHDDGGFAYWGQGTLVTVSA
VL: QAVVTQESALTTSPGETVTLTCRSSTGAVTTSNYANWVQEKPDHLFTGLIGGTNNRAPGVPARFSGSLIGDKAALTITGAQTEDEAIYFCALWYSNHWVFGGGTKLTVL
notes: also called 9.1G12.8
B4: 27.12E12-Biotin (antibody, V domains shown)
VH: EVQLQQSGAELVRPGALVKLSCKASGFNIKDYYMYWMKQRPEQGLEWIGWIDPENVKTIYDPKFQGRATLTADTSSNTAYLQLSSLTSEDTAVYYCTRDFGYVGFFDVWGAGTTVTVSS
VL: DIVMTQSQKFMSTSVGDRVSVNCKASQNVGTNVVWYQQKPGQSPKALIYSASYRYSGVPDRFTGSGSGTDFTLTISTVQSEDLAEYFCQQYNSYPLTFGGGTKLEIKR
notes: 27.12E12 (mouse IgG2b,k) biotinylated
B5: 27.12E12-BZAP (antibody, V domains shown)
VH: B4 VH
VL: B4 VL
notes: Biotinylated 27.12E12 (mouse IgG2b,k) conjugated to streptavidin-saporin (SAv-ZAP)
B6: 1.7E10.12-BZAP (antibody, V domains shown)
VH: EVKLLESGGGLVQPGGSLKLSCAASGFDFSRYWMSWVRQAPGKGLEWIGEINPDSSTINYTPSLKDKFIISRDNAKNTLFLQMSKVRSEDTALYYCARPSYDGYYGYAMDYWGQGTSVTVSS
VL: DIVLTQSPASLAVSLGQRATISCRASESVDSYGKSFMHWYQQKPGQPPKLLIYRASNLESGIPARFSGSGSRTDFTLTINPVEADDVATYYCQQSNEDPYTFGGGTKLEIKR
notes: Biotinylated 1.7E10 (mouse IgG1,k) conjugated to streptavidin-saporin (SAv-ZAP)
B7: 1.7E10.12-Biotin (antibody, V domains shown)
VH: B6 VH
VL: B6 VL
notes: 1.7E10 (mouse IgG1,k) biotinylated with the EZ-link Sulfo NHS-LC-Biotinylated kit
B8: 9.1G12.8-BZAP (antibody, V domains shown)
VH: B3 VH
VL: B3 VL
notes: Biotinylated 9.1G12 (mouse IgG2b,l) conjugated to streptavidin-saporin (SAv-ZAP); also called 9.1G12-BZAP
B9: 9.1G12.8-Biotin (antibody, V domains shown)
VH: B3 VH
VL: B3 VL
notes: 9.1G12 (mouse IgG2b,l) biotinylated
B10: 6.14B9-Biotin (antibody, V domains shown)
VH: DVQLQESGPGLVKPSQSLSLTCTVTGYSITSDYAWNWIRQFPGNKLEWMGYISYSGSISYNPSLKSRISITRDTSKNQFFLQLNSVTTEDTATYYCARSGRLRRDFDYWGQGTTLT
VL: DIQMTQSPSSLSASLGERVSLTCRASQEISGYLSWLQQKPDGTIKRLIYAASTLDSGVPKRFSGSRSGSDYSLTISSLESEDFADYYCLQYASYPLTFGAGTKLELK
notes: 6.14B9 (mouse IgG1,k) biotinylated
B11: 6.14B9-BZAP (antibody, V domains shown)
VH: B10 VH
VL: B10 VL
notes: Biotinylated 6.14B9 (mouse IgG1,k) conjugated to streptavidin-saporin (SAv-ZAP)
B12: 27.12A6 (antibody, V domains shown)
VH: EVKLVESGGGLVQPGGSLNLSCAASGFTFSSYTMSWVRQTPEKRLEWVAYISSGGHSTYFPDTVKGRFTISRDNAKNTLYLQMSSLKSEDTAVYYCARGGYGNYGPYYNMDYWGQGTSVTVSS
VL: NIMMTQSPSSLAVSAGEKVTMSCKSSQSVLYSSNQKNYLAWYQQKPGQSPKLLIYWASTRESGVPDRFTGSGSGTDFTLTINNVQAEDLAVYYCHQYLSSWTFGGGTKLEIK
notes: also called 27.12A6 (D2.2)
B13: 6.16F9 (antibody, V domains shown)
VH: EVNLVESGGGLVQPGGSLKLSCAASGFTFSSYTMSWVRQSPEKRLEWVAYTSSSGASTYYPDTVKGRFTISRDNAKNTLHLQMSSLKSEDTAMYYCARGGYGNYGPYYALDYWGQGTSVTVSS
VL: B12 VL with G74E, N82S, N83S, A86T
notes: also called 6.16F9 (D2.4)
B14: 33.1G12 (antibody, IgG1, V domains shown)
VH: EVQLQQSGPELVKPGASVKISCKASGYSFTGYLMNWVMQSHGKSLEWIGRINPYNGDIFYNQKFKDKATLTVDKSSSTAHMELRSLASEDSAVYYCARRDENFDYDNAMDYWGQGTSVTL
VL: DIVLTQSPASLAVSLGQRATISCRASESVDIYGNSFMHWYQQKPGQPPKLLIYRASNLESGIPARFRGSGSRTDFTLTIYPVEADDVATYYCQQSNEDPWTFGGGTKLEIK
notes: the printed VH ends early (…GQGTSVT)
B15: 1.7E10 (antibody, V domains shown)
VH: B6 VH
VL: B6 VL

Numbering of substitutions follows the chain as printed.

The target of one test is T1, T cell Immunoglobulin- and Mucin …. The test can be described thus: flow cytometry, PBMCs of AML patient 3, Blast population.
In the case of B1, the percent binding came to 1.07%.

As for B2, the percent binding came to 1.33%.

B3 came in with a percent binding of 0.67%.

For the next test the target is unchanged. Put plainly: flow cytometry; cells not named in the table (Example 5 uses Pfeiffer cells). (In general: In flow cytometry, cells or beads pass a laser one at a time.)
Consider B4, for which the “% Positive for TIM3” value was determined as 96.8% and the “GeoMean (Intensity of TIM3 binding)” value amounted to 202.

As for B5, the “% Positive for TIM3” value stood at 98.8% and the “GeoMean (Intensity of TIM3 binding)” value stood at 268.

In the case of B6, the “% Positive for TIM3” value is 99.3% and the “GeoMean (Intensity of TIM3 binding)” value was 436.

As to B7, the “% Positive for TIM3” value was 99.2% and the “GeoMean (Intensity of TIM3 binding)” value was determined as 354.

Consider B2, for which the “% Positive for TIM3” value turned out to be 93.3% and the “GeoMean (Intensity of TIM3 binding)” value was determined as 142.

On to B8, for which the “% Positive for TIM3” value turned out to be 97.4% and the “GeoMean (Intensity of TIM3 binding)” value worked out at 168.

As for B9, the “% Positive for TIM3” value turned out to be 55.4% and the “GeoMean (Intensity of TIM3 binding)” value amounted to 23.1.

For the molecule B10, the “% Positive for TIM3” value is 48.2% and the “GeoMean (Intensity of TIM3 binding)” value was 20.4.

Take B11: the “% Positive for TIM3” value was found to be 43.9% and the “GeoMean (Intensity of TIM3 binding)” value amounted to 22.5.

The target is the same in a further test. Put plainly: flow cytometry, PBMCs of AML patient 3, CD34+CD38- population.
As to B1, the percent binding was 0.69%.

B2 had a percent binding of 0.6%.

B3 came in with a percent binding of 0.23%.

The target in another test is T cell Immunoglobulin- and Mucin domain-containing molecule 3 (TIM3), human, on cells (human) (UniProt Q8TDQ0). The test can be described thus: flow cytometry; cells not named in the table (Example 5 uses Pfeiffer cells).
Mouse IgG1k-BZAP (antibody) came in with a % Positive for TIM3 of 0.501% and a GeoMean (Intensity of TIM3 binding) of 5.33.

The molecule IgG2bk-BZAP (antibody) yielded a % Positive for TIM3 of 0.195% and a GeoMean (Intensity of TIM3 binding) of 6.48.

As for Mouse IgG1k-Biotin (antibody), the % Positive for TIM3 stood at 0.192% and the GeoMean (Intensity of TIM3 binding) was found to be 5.06.

Mouse IgG2ak-Biotin (antibody) yielded a % Positive for TIM3 of 0.49% and a GeoMean (Intensity of TIM3 binding) of 5.83.

A further test concerns the target T1, T cell Immunoglobulin- and Mucin …. The test can be described thus: flow cytometry, TIM3 expressing cell lines.
B12: the binding result was “binds”.

Turning to B13, the binding result is given as “binds”.

Take B14: the binding result is given as “binds”.

For a further test the target is unchanged. The test can be described thus: cell binding (flow cytometry), Pfeiffer cells.
For the molecule B1, the “percentage of cell binding” value is 75%.

As for B2, the “percentage of cell binding” value was found to be 92%.

As to B3, the “percentage of cell binding” value was 14%.

Another test shares this target. Put plainly: cell-based or functional assay.
B15: the “IFN-gamma release from activated CD4+ T cells (ELISA), antibody at 5 ug/ml” value is greater than 2 fold reduction.

B2: the “IFN-gamma release from activated CD4+ T cells (ELISA), antibody at 5 ug/ml” value is greater than 2 fold reduction.

Take B3: the “IL-6 release from activated CD4+ T cells (ELISA), antibody at 5 ug/ml” value is greater than 2 fold reduction.
